In publication PMC10269885:

Biological target: PML protein (UniProt P29590)
Assay: co-immunoprecipitation (anti-HA IP, anti-PML immunoblot, densitometry)
Details: HepaRG cells transfected with 10 μg plasmid; lysates prepared 48 h posttransfection; two independent experiments; parent: est. 7.8; read off a plot

Chain of UniProt P29590 (P29590 whole entry): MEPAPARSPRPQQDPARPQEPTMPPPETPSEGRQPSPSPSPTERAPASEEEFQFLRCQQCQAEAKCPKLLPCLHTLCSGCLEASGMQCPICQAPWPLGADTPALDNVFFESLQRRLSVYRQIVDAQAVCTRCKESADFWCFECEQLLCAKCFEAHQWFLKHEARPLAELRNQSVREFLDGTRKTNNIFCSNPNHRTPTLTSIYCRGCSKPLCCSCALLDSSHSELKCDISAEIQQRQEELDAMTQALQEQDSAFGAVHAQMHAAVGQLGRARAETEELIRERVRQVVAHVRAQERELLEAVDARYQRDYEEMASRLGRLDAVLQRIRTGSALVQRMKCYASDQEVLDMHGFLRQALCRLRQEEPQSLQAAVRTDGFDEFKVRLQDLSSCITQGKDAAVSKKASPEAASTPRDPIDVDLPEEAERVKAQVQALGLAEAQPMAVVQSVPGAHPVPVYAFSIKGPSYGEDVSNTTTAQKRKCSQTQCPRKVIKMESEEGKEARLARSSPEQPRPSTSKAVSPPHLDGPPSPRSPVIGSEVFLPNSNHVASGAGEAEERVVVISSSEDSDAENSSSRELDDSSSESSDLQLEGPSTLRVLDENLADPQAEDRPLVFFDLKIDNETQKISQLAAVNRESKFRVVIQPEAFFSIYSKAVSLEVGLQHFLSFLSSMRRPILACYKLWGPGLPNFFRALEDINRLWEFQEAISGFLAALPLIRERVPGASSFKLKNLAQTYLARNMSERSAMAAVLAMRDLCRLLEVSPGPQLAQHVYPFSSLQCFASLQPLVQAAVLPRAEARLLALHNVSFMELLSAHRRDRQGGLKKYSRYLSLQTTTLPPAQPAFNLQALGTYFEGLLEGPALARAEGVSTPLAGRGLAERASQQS

## HA-tagged wild-type HBV core protein (pCore-HA wt) K7R; K96R
  response (% input of PML co-IP): 0.1
